Measurements from patent US20200010522A1 (SALUBRIS BIOTHERAPEUTICS, published 2020).

Biological target: T1, monkey HER3 antigen (monkey)
T1 construct: also called HER3 (monkey)
Assay: BIAcore (SPR)

Kd: 397 pM
B1: anti-HER3 mAb/NRG-1 fusion protein (recombinant fusion protein, with Fc mutations) (antibody, human IgG1, kappa)
heavy: QVQLQQWGAGLLKPSETLSLTCAVYGGSFSGYYWSWIRQPPGKGLEWIGEINHSGSTNYNPSLKSRVTISVETSKNQFSLKLSSVTAADTAVYYCARDKWTWYFDLWGRGTLVTVSSASTKGPSVFPLAPSSKSTSGGTAALGCLVKDYFPEPVTVSWNSGALTSGVHTFPAVLQSSGLYSLSSVVTVPSSSLGTQTYICNVNHKPSNTKVDKRVEPKSCDKTHTCPPCPAPEFLGGPAVFLFPPKPKDTLMISRTPEVTCVVVDVSHEDPEVKFNWYVDGVEVHNAKTKPREEQYNSTYRVVSVLTVLHQDWLNGKEYKCKVSNKALPAPIEKTISKAKGQPREPQVYTLPPSREEMTKNQVSLTCLVKGFYPSDIAVEWESNGQPENNYKTTPPVLDSDGSFFLYSKLTVDKSRWQQGNVFSCSVMHEALHAHYTQKSLSLSPGKGGGGSGGGGSSHLVKCAEKEKTFCVNGGECFMVKDLSNPSRYLCKCPNEFTGDRCQNYVMASFYKAEELYQ
light: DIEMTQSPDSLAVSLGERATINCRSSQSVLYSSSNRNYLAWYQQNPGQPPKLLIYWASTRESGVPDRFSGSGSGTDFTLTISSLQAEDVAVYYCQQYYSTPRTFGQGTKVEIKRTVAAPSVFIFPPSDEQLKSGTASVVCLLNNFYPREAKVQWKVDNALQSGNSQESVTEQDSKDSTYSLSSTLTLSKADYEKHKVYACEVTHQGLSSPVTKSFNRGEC
notes: Made in CHO-derived HD-BIOP3 cells; also called the recombinant fusion protein disclosed herein; recombinant anti-HER3 mAb/NRG-1 fusion protein; copies: 2 + 2
